IntAct's records for PubMed 16630557

B1: mRNA-decapping enzyme subunit 1 (Saccharomyces cerevisiae), Q12517 (parent)
chain: MTGAATAAENSATQLEFYRKALNFNVIGRYDPKIKQLLFHTPHASLYKWDFKKDEWNKLEYQGVLAIYLRDVSQNTNLLPVSPQEVDIFDSQNGSNNIQVNNGSDNSNRNSSGNGNSYKSNDSLTYNCGKTLSGKDIYNYGLIILNRINPDNFSMGIVPNSVVNKRKVFNAEEDTLNPLECMGVEVKDELVIIKNLKHEVYGIWIHTVSDRQNIYELIKYLLENEPKDSFA

Variants of: B1
Conditions: with erf3_yeast SUP35, P05453
erf3_yeast SUP35, P05453, sequence (P05453 whole entry): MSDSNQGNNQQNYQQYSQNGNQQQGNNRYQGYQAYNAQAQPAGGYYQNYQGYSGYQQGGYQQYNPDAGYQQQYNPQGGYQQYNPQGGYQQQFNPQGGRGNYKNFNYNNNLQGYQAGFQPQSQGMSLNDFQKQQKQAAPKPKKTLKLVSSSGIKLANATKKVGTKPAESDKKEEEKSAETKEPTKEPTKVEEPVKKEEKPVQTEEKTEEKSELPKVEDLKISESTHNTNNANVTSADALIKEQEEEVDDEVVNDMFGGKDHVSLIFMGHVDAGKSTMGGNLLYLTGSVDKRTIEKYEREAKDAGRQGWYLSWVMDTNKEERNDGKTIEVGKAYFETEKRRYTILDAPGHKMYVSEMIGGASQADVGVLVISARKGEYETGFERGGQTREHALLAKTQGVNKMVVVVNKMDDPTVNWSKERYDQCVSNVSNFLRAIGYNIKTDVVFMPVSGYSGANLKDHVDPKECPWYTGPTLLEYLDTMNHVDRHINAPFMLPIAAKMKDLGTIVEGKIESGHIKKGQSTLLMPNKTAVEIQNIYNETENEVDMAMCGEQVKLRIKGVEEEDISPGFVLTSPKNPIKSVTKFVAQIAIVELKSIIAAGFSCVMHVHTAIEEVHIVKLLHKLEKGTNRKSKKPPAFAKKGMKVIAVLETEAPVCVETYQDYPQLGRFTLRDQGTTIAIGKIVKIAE

Row | effect of a mutation on the interaction | Variant
1 | decreasing interaction | L38P;S45P
2 | decreasing interaction | S45P
